# B1: Arabidopsis thaliana phi class glutathione transferase AtGSTF2 (enzyme)
# chain: MAGIKVFGHPASIATRRVLIALHEKNLDFELVHVELKDGEHKKEPFLSRNPFGQVPAFEDGDLKLFESRAITQYIAHRYENQGTNLLQTDSKNISQYAIMAIGMQVEDHQFDPVASKLAFEQIFKSIYGLTTDEAVVAEEEAKLAKVLDVYEARLKEFKYLAGETFTLTDLHHIPAIQYLLGTPTKKLFTERPRVNEWVAEITKRPASEKVQ
# notes: AtGSTF2, phi class glutathione transferase of Arabidopsis thaliana; no tag is named, and the protein was purified on GSH sepharose; also called phi class GST; source: E. coli Tuner (DE3) with pRARE, purified (GSH sepharose 4B, S75 Superdex gel filtration)
# Target: the molecule itself
# Experiment: crystal structure; AtGSTF2 (10 mg/mL) co-crystallised with small-molecule ligands 1-4 (5 or 10 mM); four structures at 2.00-2.77 Å; dimers in the asymmetric unit
protein,measurement,value
B1,stoichiometry N,2

# Reference: publication PMC5292665, “Structural evidence for Arabidopsis glutathione transferase AtGSTF2 functioning as a transporter of small organic ligands” (FEBS Open Bio, 2016)
